Results taken from article PMC10104839, “Structural basis for sequence-specific recognition of guide and target strands by the Archaeoglobus fulgidus Argonaute protein” (Scientific Reports, 2023).

Legend:
[1] = target: the molecule itself; test: crystal structure; AfAgo-DNA oligoduplex complexes, 90-120 uM (as monomer), crystals grown at 4-8 °C; P1 crystals (5'P-ATC DNA) hold two DNA-bound subunits per asymmetric unit; in the P22(1)2(1) crystals (5'P-ATT DNA) the dimer is formed by a crystallographic symmetry operator
AfAgo [2] = target: T1, AfAgo (Archaeoglobus fulgidus DSM 4304, UniProt O28951 1-427); test: EMSA; EMSA: 40 mM Tris-acetate pH 8.4 (25 C), 1 mM EDTA, 100 mM K-acetate, 0.1 mg/ml BSA, 1 mM DTT, 10% glycerol; 5 nM NA (1 nM 32P + 4 nM cold); 10 min at 25 C; settings: protein: recombinant; tags: N-terminal His (HisTrap; construct name NHis-Af1318); label: 5'-32P
T1 sequence: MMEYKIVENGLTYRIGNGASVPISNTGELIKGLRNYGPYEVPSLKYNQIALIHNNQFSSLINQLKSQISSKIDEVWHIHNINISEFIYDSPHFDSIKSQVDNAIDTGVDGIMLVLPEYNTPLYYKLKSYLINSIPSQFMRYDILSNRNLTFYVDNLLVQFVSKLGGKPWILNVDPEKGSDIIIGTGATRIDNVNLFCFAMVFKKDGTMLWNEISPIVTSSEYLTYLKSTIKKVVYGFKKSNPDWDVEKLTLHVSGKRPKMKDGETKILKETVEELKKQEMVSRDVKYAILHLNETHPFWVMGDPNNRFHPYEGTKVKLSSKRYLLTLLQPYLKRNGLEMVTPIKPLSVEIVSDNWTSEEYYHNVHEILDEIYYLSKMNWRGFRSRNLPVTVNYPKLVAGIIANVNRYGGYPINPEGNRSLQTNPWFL

AfAgo [3] = target: T1, AfAgo; test: EMSA; AfAgo pre-loaded with gRNA (1:2), target titrated; no heparin; EMSA: 40 mM Tris-acetate pH 8.4 (25 C), 1 mM EDTA, 100 mM K-acetate, 0.1 mg/ml BSA, 1 mM DTT, 10% glycerol; 5 nM NA (1 nM 32P + 4 nM cold); 10 min at 25 C; settings: protein: recombinant; tags: N-terminal His (HisTrap; construct name NHis-Af1318); label: 5'-32P on target; guide nt 1-8 complementary to target 3' end; rest largely unpaired
AfAgo [4] = target: T1, AfAgo; test: X-ray crystallography; Mg2+; EMSA: 40 mM Tris-acetate pH 8.4 (25 C), 1 mM EDTA, 100 mM K-acetate, 0.1 mg/ml BSA, 1 mM DTT, 10% glycerol; 5 nM NA (1 nM 32P + 4 nM cold); 10 min at 25 C; settings: protein: recombinant; tags: N-terminal His (HisTrap; construct name NHis-Af1318); blunt, self-complementary, 2 strand copies
AfAgo [5] = target: T1, AfAgo; test: X-ray crystallography; 5 mM Mg2+ in complex preparation; EMSA: 40 mM Tris-acetate pH 8.4 (25 C), 1 mM EDTA, 100 mM K-acetate, 0.1 mg/ml BSA, 1 mM DTT, 10% glycerol; 5 nM NA (1 nM 32P + 4 nM cold); 10 min at 25 C; settings: protein: recombinant; tags: N-terminal His (HisTrap; construct name NHis-Af1318); blunt, self-complementary, 2 strand copies
AfAgo [6] = target: T1, AfAgo; test: EMSA; pre-formed duplex; EMSA: 40 mM Tris-acetate pH 8.4 (25 C), 1 mM EDTA, 100 mM K-acetate, 0.1 mg/ml BSA, 1 mM DTT, 10% glycerol; 5 nM NA (1 nM 32P + 4 nM cold); 10 min at 25 C; settings: protein: recombinant; tags: N-terminal His (HisTrap; construct name NHis-Af1318); label: 5'-32P; blunt

B1: Archaeoglobus fulgidus Argonaute protein (AfAgo) (natural protein, Archaeoglobus fulgidus DSM 4304)
chain: MMEYKIVENGLTYRIGNGASVPISNTGELIKGLRNYGPYEVPSLKYNQIALIHNNQFSSLINQLKSQISSKIDEVWHIHNINISEFIYDSPHFDSIKSQVDNAIDTGVDGIMLVLPEYNTPLYYKLKSYLINSIPSQFMRYDILSNRNLTFYVDNLLVQFVSKLGGKPWILNVDPEKGSDIIIGTGATRIDNVNLFCFAMVFKKDGTMLWNEISPIVTSSEYLTYLKSTIKKVVYGFKKSNPDWDVEKLTLHVSGKRPKMKDGETKILKETVEELKKQEMVSRDVKYAILHLNETHPFWVMGDPNNRFHPYEGTKVKLSSKRYLLTLLQPYLKRNGLEMVTPIKPLSVEIVSDNWTSEEYYHNVHEILDEIYYLSKMNWRGFRSRNLPVTVNYPKLVAGIIANVNRYGGYPINPEGNRSLQTNPWFL
notes: AfAgo, hypothetical protein from Archaeoglobus fulgidus DSM 4304, GenBank NP_070147.1, cloned in pETDuet-1; also called AfPIWI; Af1318; source: E. coli, purified (Ni2+ HiTrap chelating, RNase A/T1 treatment, HiTrap Heparin, Superdex 200)
binding result [1]: binds

AUUGUACACGGCCGAAU (ssRNA, 5'-phosphate) [MZ-1480 5'P-AUU ssRNA]
Kd (AfAgo [2]): 3.8 ± 0.1 nM

GUUGUACACGGCCGAAC (ssRNA, 5'-phosphate) [MZ-1698 GUU ssRNA]
Kd (AfAgo [2]): 42 ± 2.1 nM

B2: gRNA MZ-1480 + target DNA MZ-1560 (8 nt) (DNA:RNA)
RNA: AUUGUACACGGCCGAAU
DNA: CGGAATATATGTACAAT
modifications: 5'-phosphate
Kd (AfAgo [3]): 7.5 ± 0.4 nM

B3: gRNA MZ-1480 + target RNA MZ-1556 (8 nt) (dsRNA)
RNA 1: AUUGUACACGGCCGAAU
RNA 2: CGGAAUAUAUGUACAAU
modifications: 5'-phosphate
Kd (AfAgo [3]): 33 ± 4.2 nM

CUUGUACACGGCCGAAG (ssRNA, 5'-phosphate) [MZ-1708 CUU ssRNA]
Kd (AfAgo [2]): 28 ± 2.7 nM

B4: MZ-1288 5'-ATT oligoduplex (dsDNA)
DNA 1: ATTGTGGCCACAAT
DNA 2: ATTGTGGCCACAAT
modifications: 5'-phosphate
binding result (AfAgo [4]): binds

B5: MZ-1289 5'-ATT oligoduplex (dsDNA)
DNA 1: ATTGTACGTACAAT
DNA 2: ATTGTACGTACAAT
modifications: 5'-phosphate
binding result (AfAgo [5]): binds

B6: MZ-952 5'-ATC oligoduplex (dsDNA)
DNA 1: ATCGTGGCCACGAT
DNA 2: ATCGTGGCCACGAT
modifications: 5'-phosphate
binding result (AfAgo [5]): binds

UUUGUACACGGCCGAAA (ssRNA, 5'-phosphate) [MZ-1699 UUU ssRNA]
Kd (AfAgo [2]): 15 ± 2.8 nM

AGUGUACACGGCCGACU (ssRNA, 5'-phosphate) [MZ-1707 AGU ssRNA]
Kd (AfAgo [2]): 84 ± 2.9 nM

AUCGUACACGGCCGGAU (ssRNA, 5'-phosphate) [MZ-1706 AUC ssRNA]
Kd (AfAgo [2]): 16 ± 2.1 nM

ATTGTACACGGCCGAAT (ssDNA, 5'-phosphate) [MZ-1447 ATT ssDNA]
Kd (AfAgo [2]): 236 ± 35 nM

B7: MZ-1480/MZ-1455 RNA/DNA heteroduplex (DNA:RNA)
RNA: AUUGUACACGGCCGAAU
DNA: ATTCGGCCGTGTACAAT
modifications: 5'-phosphate
Kd (AfAgo [6]): 6.1 ± 0.04 nM

B8: MZ-1447/MZ-1455 dsDNA (dsDNA)
DNA 1: ATTGTACACGGCCGAAT
DNA 2: ATTCGGCCGTGTACAAT
modifications: 5'-phosphate
Kd (AfAgo [6]): 37 ± 17 nM

B9: MZ-1480/MZ-1481 dsRNA (dsRNA)
RNA 1: AUUGUACACGGCCGAAU
RNA 2: AUUCGGCCGUGUACAAU
modifications: 5'-phosphate
Kd (AfAgo [6]): 15 ± 0.9 nM
